Experimental data reported in US20170362329A1 (PELICAN THERAPEUTICS, published 2017).
Where two headings read alike, the source gives them in different places. Each block holds one molecule with its values, some of them ahead of it.

Legend:
[1] = biological target: human TNFRSF25 (expressed on P815 cells) (human) (UniProt Q93038); experiment: cell-based or functional assay
WBP330.hProl.ECD.hF = biological target: T1, WBP330.hProl.ECD.hF (human, UniProt Q93038 25-199); experiment: SPR (ProteOn), TNFRSF25 ECD fusion as ligand, antibody as analyte, bivalent analyte model
T1 construct: extracellular domain; also called human TNFRSF25 (SPR ligand)
T1 sequence (looked up): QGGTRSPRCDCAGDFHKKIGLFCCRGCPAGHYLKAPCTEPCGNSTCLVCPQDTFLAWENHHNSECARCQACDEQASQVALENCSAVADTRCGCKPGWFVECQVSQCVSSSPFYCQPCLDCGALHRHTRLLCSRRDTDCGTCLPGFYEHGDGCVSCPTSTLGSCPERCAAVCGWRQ
Protocol: Affinity of the indicated humanized TNFRSF25 antibodies was determined by surface plasmon resonance (SPR) using the ProteOn method (FIG. 7 and TABLE 3).

[2] = biological target: human TNFRSF25 (expressed on P815 cells) (human), Q93038; experiment: cell-based or functional assay
human TNFRSF25-Fc = biological target: T2, human TNFRSF25-Fc (human, UniProt Q93038 25-199, limits assumed); experiment: ELISA, binding of PTX-25 to human TNFRSF25-Fc, OD 450 nm
T2 construct: also called human TNFRSF25 fusion protein; not shown: Fc part
T2 sequence (looked up): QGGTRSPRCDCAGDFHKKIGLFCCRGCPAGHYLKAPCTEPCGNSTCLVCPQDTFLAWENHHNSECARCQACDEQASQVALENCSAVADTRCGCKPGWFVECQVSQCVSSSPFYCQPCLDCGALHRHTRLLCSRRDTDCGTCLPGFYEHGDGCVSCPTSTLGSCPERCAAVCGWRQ

[3] = biological target: human TNFRSF25 (expressed on P815 cells) (human) (UniProt Q93038); experiment: flow cytometry on P815 cells expressing human TNFRSF25 (mean fluorescence intensity)
[4] = biological target: human TNFRSF25 (expressed on P815 cells) (human) (UniProt Q93038); experiment: cell-based or functional assay; remark: listed apart in the source
[5] = biological target: human TNFRSF25 (expressed on P815 cells) (human) (UniProt Q93038); experiment: flow cytometry on P815 cells expressing human TNFRSF25

EC50 of induced caspase activity [1]: 0.283 µg/mL
Molecule: hTL1A-hFc chimera (from UniProt O95150 72-251) (Fc fusion)

Kd (WBP330.hProl.ECD.hF): 58.1 nM
koff (WBP330.hProl.ECD.hF): 0.00576 s⁻¹
kon (WBP330.hProl.ECD.hF): 99000 M⁻¹ s⁻¹
EC50 (nM), caspase activation in P815 cells expressing human TNFRSF25 [2]: 71.4 nM
EC50 of induced caspase activity [2]: 0.121 µg/mL
B1: WBP330.cAb1.hIgG1 (35783) (antibody, V domains shown)
VH: EVQLVESGGGLSQPGNSLQLSCEASGFTFSNHDLNWVRQAPGKGLEWVAYISSASGLISYADAVRGRFTISRDNAKNSLFLQMNNLKSEDTAMYYCARDPPYSGLYALDFWGQGTQVTVSS
VL: QPVLTQSPSASASLSGSVKLTCTLSSELSSYTIVWYQQRPDKAPKYVMYLKSDGSHSKGDGIPDRFSGSSSGAHRYLSISNVQSEDDATYFCGAGYTLAGQYGWVFGSGTKVTVL
notes: also called cAb1 (35783); chimeric antibody

EC50 (read off the curve) (human TNFRSF25-Fc): ~0.04 µg/mL
IC50 (human TNFRSF25-Fc): 5.17 nM
B2: PTX-25 (human TNFRSF25-specific monoclonal antibody, pre-humanized parental) (antibody, V domains shown)
VH: EVQLVESGGGLSQPGNSLQLSCEASGFTFSNHDLNWVRQAPGKGLEWVAYISSASGLISYADAVRGRFTISRDNAKNSLFLQMNNLKSEDTAMYYCARDPPYSGLYALDFWGQGTQVTVSS
VL: QPVLTQSPSASASLSGSVKLTCTLSSELSSYTIVWYQQRPDKAPKYVMYLKSDGSHSKGDGIPDRFSGSSSGAHRYLSISNVQSEDDATYFCGAGYTLAGQYGWVFGSGTKVTVL
notes: also called Pre-humanized Parental PTX-25; human TNFRSF25-specific mAb

Bmax [3]: 246
Kd (WBP330.hProl.ECD.hF): 254 nM
koff (WBP330.hProl.ECD.hF): 0.0252 s⁻¹
kon (WBP330.hProl.ECD.hF): 99000 M⁻¹ s⁻¹
EC50 (nM), caspase activation in P815 cells expressing human TNFRSF25 [4]: 19.6 nM
EC50 of induced caspase activity [4]: 0.0192 µg/mL
Kd [5]: 73.5 nM
B3: WBP330BMK1 (antibody, V domains shown)
VH: EVQLVESGGGLSQPGNSLQLSCEASGFTFSNHDLNWVRQAPGKGLEWVAYISSASGLISYADAVRGRFTISRDNAKNSLFLQMNNLKSEDTAMYYCARDPPYSGLYALDFWGQGTQVTVSS
VL: QPVLTQSPSASASLSGSVKLTCTLSSELSSYTIVWYQQRPDKAPKYVMYLKSDGSHSKGDGIPDRFSGSSSGAHRYLSISNVQSEDDATYFCGAGYTLAGQYGWVFGSGTKVTVL
